This data set has as its target T1, SmMYB113 (Solanum melongena, UniProt A0A0A0QP33 1-256).
T1 sequence: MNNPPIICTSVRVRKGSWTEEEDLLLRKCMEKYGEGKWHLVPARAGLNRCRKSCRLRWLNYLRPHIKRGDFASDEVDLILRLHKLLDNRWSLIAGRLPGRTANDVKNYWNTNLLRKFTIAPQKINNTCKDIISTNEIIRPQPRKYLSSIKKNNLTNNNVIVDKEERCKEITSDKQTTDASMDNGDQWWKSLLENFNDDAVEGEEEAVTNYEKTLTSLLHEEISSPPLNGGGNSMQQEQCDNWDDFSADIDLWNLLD
Briefly: EMSA; EMSA per manufacturer's instructions (Thermo Pierce); buffer, salt, pH and temperature not stated; unlabeled competitor 10x, 30x, 100x. The conditions noted are these: protein: recombinant; tags: His (pET32a fusion); label: biotin; blunt.

B1: SmMATE probe (dsDNA)
DNA 1: AACAATTGCTATAACTACAGTTAGGGAATGCAATTACCG
DNA 2: CGGTAATTGCATTCCCTAACTGTAGTTATAGCAATTGTT
With B1, the binding result is on record as “binds”.

B2: SmASAT3 probe (dsDNA)
DNA 1: TTGGTTTTTATGGGCACAGTTGCTACTATGGGTGAATA
DNA 2: TATTCACCCATAGTAGCAACTGTGCCCATAAAAACCAA
Consider B2, for which the binding result was “binds”.

B3: SmGST probe (dsDNA)
DNA 1: CAGACTTTCCACTCAACCACTGGTTGCTGCTCATCTTCA
DNA 2: TGAAGATGAGCAGCAACCAGTGGTTGAGTGGAAAGTCTG
Regarding B3, the binding result is recorded as “binds”.

B4: SmCytb5 probe (dsDNA)
DNA 1: TCCAAGTTTTTTTCTTTGGTTGATAATTTTATCTAACG
DNA 2: CGTTAGATAAAATTATCAACCAAAGAAAAAAACTTGGA
On to B4, for which the binding result is “binds”.

B5: SmF3'5'M probe (dsDNA)
DNA 1: TTTTTTTTTTGCTTAGACAACTGGCAAGGATTTTACTAA
DNA 2: TTAGTAAAATCCTTGCCAGTTGTCTAAGCAAAAAAAAAA
As to B5, the binding result is “binds”.

Values taken from PMC10599318, “RNA-sequencing analysis reveals novel genes involved in the different peel color formation in eggplant”.
